Experimental data: patent publication US20210102950A1 (YALE UNIVERSITY, published 2021)

Molecular target: T1, ubiquitin (single molecule, mono-ubiquitin) (Homo sapiens (Human), UniProt P0CG47 1-76)
T1 construct: also called one ubiquitin
Assay: isothermal titration calorimetry, one OtUBD to one ubiquitin

B1: OtUBD (ubiquitin binding domain of an effector protein of Orientia tsutsugamushi), native unmodified domain (other)
chain: VNFLSENRMITSAAAALADTLLKNNNRITEGVLVDRIFDNKILSVQEKQQLLNNLLDNHIKENKSLTKESLTRMLASTHFVQQQANVLLNEKFNK
notes: also called OtUDB
- Kd: 5.3 nM
